Molecular target: T1, CD73 on cells (MDA-MB-231 cells; human PBMC) (human, UniProt P21589 27-549)
T1 sequence (looked up): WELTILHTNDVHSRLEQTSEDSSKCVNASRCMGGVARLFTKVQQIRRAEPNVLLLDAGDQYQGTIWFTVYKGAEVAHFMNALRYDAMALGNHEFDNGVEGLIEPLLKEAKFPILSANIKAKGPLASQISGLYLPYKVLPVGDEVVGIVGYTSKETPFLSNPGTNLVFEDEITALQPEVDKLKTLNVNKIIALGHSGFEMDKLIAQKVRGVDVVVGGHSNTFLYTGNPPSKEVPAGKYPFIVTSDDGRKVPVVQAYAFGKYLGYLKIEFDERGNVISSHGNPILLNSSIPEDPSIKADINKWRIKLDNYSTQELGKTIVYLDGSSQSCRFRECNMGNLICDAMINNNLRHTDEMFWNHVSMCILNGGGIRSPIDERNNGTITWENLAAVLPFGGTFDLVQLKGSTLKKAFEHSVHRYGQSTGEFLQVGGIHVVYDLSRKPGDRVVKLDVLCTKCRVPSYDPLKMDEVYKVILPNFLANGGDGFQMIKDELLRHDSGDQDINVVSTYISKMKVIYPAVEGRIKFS
Assay: cell-based or functional assay

B1: CPX-006 (antibody, human IgG1, kappa, N297Q, V domains shown)
VH: QVQLVQSGAEVEKPGASVKVSCKASGYTFTSYWITWVRQAPGQGLEWMGDIYPGSGNTNYNEKFKTRVTITADKSTSTAYMELSSLRSEDTAVYYCAKEGGLTTEDYALDYWGQGTLVTVSS
VL: EIVLTQSPATLSLSPGERATLSCRASKNVSTSGYSYMHWYQQKPGQAPRLLIYLASNLESGIPPRFSGSGYGTDFTLTINNIESEDAAYYFCQHSRELPFTFGQGTKVEIKR
With B1 the “EC50, T cell proliferation (human PBMC with AMP)” value was 0.189 µM and the “EC50, interferon gamma production (human PBMC with AMP)” value was 0.137 µM.

Source: patent US20210107989A1, “METHODS FOR TREATING CD73HI TUMORS” (CORVUS PHARMACEUTICALS, INC., priority 2017, published 2021)
